In assay [1] the target is T1, Recombinant soluble NRP1 (sNRP1) protein containing His6 and c-Myc domain tags (human, UniProt O14786-2 22-644, limits assumed).
T1 construct: Expressed in NIH-3T3 cells, purified from conditioned medium by ammonium sulfate precipitation and Ni-NTA; also called recombinant human sNRP1; recombinant NRP1; not shown: His6 and c-Myc tags
T1 sequence (looked up): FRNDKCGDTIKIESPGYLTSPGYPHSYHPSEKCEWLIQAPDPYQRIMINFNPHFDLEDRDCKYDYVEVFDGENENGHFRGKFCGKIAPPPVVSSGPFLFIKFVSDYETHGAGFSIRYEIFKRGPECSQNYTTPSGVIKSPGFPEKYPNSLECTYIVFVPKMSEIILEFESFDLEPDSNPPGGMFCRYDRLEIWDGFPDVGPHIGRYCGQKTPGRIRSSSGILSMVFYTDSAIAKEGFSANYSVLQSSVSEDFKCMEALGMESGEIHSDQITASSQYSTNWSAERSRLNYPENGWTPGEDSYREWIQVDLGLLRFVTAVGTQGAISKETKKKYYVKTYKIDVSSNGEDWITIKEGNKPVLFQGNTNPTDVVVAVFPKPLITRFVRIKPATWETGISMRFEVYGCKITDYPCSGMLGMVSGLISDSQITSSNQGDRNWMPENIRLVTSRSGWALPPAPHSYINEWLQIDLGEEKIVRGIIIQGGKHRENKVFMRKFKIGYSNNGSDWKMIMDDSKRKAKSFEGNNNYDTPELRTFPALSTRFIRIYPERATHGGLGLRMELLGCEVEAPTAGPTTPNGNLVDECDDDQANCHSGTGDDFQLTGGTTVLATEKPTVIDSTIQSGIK
Nature of the assay: SPR (Biacore), NRP1 immobilized on CM5 chip, peptide injected, 25 C. As to the method: The binding kinetics of selected peptides with NRP1 were tested using the surface plasmon resonance based measuring system (Biacore AB) at 25° C. Recombinant NRP1 was immobilized on CM5 sensor chips by amine coupling at 400 response units using the amine coupling kit (Biacore) according to the manufacturer's instructions. Binding was detected in resonance units after injecting various concentrations of peptide at a flow rate of 30 μL/min. Sensograms of association and dissociation were recorded and analyzed using BIAevaluation software 3.0 (Biacore AB).
To identify whether any new signature motif can bind and inhibit NRP1-mediated invasion, mammalian cell-expressed NRP1 proteins were used as bait to screen a random cyclic 7-mer peptide library for NRP1-binding peptides. A Ph.D. C7C phage display library containing 10¹¹ random cyclic 7-amino acid peptides was applied for biopanning. After four rounds of screening, 63 clones were isolated. […] A consensus motif, -RRXR-, was found in nine clones by MULTALIN program alignment (Table 3). […] Surface plasmon resonance was used to measure the real-time association and dissociation of the binding of RRXR-containing peptides to NRP1. […] The slightly higher binding affinity of DG1 to NRP1 was due to a more favorable kₐ.

In a further assay the target is T2, VEGFR2 (UniProt P35968 20-764, limits assumed).
T2 construct: also called Flk-1/KDR
T2 sequence (P35968 20-764 limits assumed): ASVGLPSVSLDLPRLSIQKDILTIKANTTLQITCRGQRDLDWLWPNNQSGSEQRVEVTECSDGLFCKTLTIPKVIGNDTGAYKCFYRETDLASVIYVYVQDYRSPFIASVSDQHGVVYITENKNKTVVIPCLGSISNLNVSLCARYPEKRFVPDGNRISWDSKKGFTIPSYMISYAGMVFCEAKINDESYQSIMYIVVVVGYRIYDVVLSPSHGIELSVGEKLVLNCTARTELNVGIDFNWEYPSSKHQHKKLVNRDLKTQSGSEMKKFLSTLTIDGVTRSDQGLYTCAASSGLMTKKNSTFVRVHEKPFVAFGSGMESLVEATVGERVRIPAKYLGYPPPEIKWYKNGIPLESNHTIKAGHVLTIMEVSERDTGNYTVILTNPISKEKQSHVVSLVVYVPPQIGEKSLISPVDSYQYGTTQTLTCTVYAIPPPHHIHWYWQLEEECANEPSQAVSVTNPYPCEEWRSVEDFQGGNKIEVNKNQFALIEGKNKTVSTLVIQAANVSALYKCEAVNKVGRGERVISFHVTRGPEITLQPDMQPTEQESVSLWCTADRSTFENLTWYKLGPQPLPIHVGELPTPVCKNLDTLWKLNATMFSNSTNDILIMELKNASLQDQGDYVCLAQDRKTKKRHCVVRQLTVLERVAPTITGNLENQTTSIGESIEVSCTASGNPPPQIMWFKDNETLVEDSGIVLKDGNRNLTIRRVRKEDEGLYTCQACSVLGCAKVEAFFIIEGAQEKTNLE
Nature of the assay: SPR (Biacore), receptor immobilized on sensor chip. Background: In SPR one partner is held on a chip, and binding of the other changes the refractive index at the surface.

Assay [2] deals with T1, Recombinant soluble NRP1 (sNRP1) …. Nature of the assay: SPR.

Bridges are numbered along the chain shown (N, C = ends). Where no end group is shown, it is not given here.

B1: cyclic peptide DG1 (CRRPRMLTC) (peptide)
peptide: CRRPRMLTC
modifications: disulfide 1-9 (inferred)
notes: Chemically synthesized cyclic 9-mer (Digitalgene, Taiwan); Its core matches phage clone 4-1
One may read the Kd as the equilibrium constant for the complex coming apart. The term koff denotes the rate constant with which the complex falls apart. As a reminder, the kon is the rate constant with which the complex forms. In the case of B1, in assay [1], the equilibrium dissociation constant (Kd) was found to be 1400 nM, the off-rate (koff) turned out to be 0.00172 s⁻¹ and the on-rate (kon) came out at 1230 M⁻¹ s⁻¹. In addition, in the assay with VEGFR2, the binding result is “no binding”.

B2: cyclic peptide DG2 (CRSRRIRLC) (peptide)
peptide: CRSRRIRLC
modifications: disulfide 1-9 (inferred)
notes: Chemically synthesized cyclic 9-mer (Digitalgene, Taiwan); Its core matches phage clone 4-5
B2: in assay [1], the Kd is 5370 nM, the dissociation rate constant (koff) came to 0.000663 s⁻¹ and the kon was 123 M⁻¹ s⁻¹. Besides, the binding result in the assay with VEGFR2 is on record as “no binding”.

B3: Human VEGF165 (ligand, UniProt P15692-4 27-191, looked up)
chain: APMAEGGGQNHHEVVKFMDVYQRSYCHPIETLVDIFQEYPDEIEYIFKPSCVPLMRCGGCCNDEGLECVPTEESNITMQIMRIKPHQGQHIGEMSFLQHNKCECRPKKDRARQENPCGPCSERRKHLFVQDPQTCKCSCKNTDSRCKARQLELNERTCRCDKPRR
notes: Bought from PeproTech; also called hVEGF
Regarding B3, in assay [2], the dissociation constant (Kd) is 125 nM.

For the origin of these results see patent US20090197798A1 (NATIONAL TAIWAN UNIVERSITY, published 2009).
